In article PMC3744876:
Read-outs that look alike come from different tables or passages of the source.

T1: RIG-I CTD H847A (human, UniProt O95786 792-925, H847A)
T1 sequence: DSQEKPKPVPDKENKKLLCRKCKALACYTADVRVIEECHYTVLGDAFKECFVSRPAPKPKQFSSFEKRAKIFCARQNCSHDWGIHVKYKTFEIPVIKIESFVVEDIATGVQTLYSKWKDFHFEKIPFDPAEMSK

T2: RIG-I CTD H847A/K858A (human, UniProt O95786 792-925, H847A;K858A)
T2 sequence: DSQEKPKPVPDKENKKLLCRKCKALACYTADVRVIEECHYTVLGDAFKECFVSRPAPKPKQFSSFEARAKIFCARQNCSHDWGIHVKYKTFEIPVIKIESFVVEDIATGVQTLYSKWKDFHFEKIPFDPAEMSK

T3: RIG-I CTD (human, UniProt O95786 792-925)
T3 sequence: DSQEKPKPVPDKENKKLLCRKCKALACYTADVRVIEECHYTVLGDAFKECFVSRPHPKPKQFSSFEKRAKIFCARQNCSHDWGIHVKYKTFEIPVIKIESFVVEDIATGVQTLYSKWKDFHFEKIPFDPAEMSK

B1: 5'-ppp-dsRNA 12-mer, 32pCp-labelled (dsRNA)
RNA 1: GACGCUAGCGUC
RNA 2: GACGCUAGCGUC
modifications: 5'-triphosphate; labelled strand (ppp-11-mer S1 + pCp) carries an additional 3'-phosphate
B2: 5'-ppp-dsRNA 12-mer (dsRNA)
RNA 1: GACGCUAGCGUC
RNA 2: GACGCUAGCGUC
modifications: 5'-triphosphate on both strands

Key:
[1] = target: T1, RIG-I CTD H847A; assay: EMSA
[2] = target: T1, RIG-I CTD H847A; assay: ITC
[3] = target: T2, RIG-I CTD H847A/K858A; assay: ITC
[4] = target: T3, RIG-I CTD; assay: ITC
[5] = target: T3, RIG-I CTD; assay: ITC; remark: listed apart in the source

Binder | binding signal [1] | Kd [2] | Kd [3] | Kd [4] | Kd [5]
B1 | ~10 fold weaker than WT |  |  |  | 
B2 |  | 162 nM | 649 nM | 29.2 nM | 215 nM
